Measurements as given in US7176008 (MERCK, dated 2007).

Tests used:
[1] = target: T1, activated thrombin-activatable fibrinolysis inhibitor (human TAFIa) (human, UniProt Q96IY4 115-423)
T1 construct: Purified from human serum in the presence of 5 mM epsilon-aminocaproic acid; also called carboxypeptidase U
T1 sequence (looked up): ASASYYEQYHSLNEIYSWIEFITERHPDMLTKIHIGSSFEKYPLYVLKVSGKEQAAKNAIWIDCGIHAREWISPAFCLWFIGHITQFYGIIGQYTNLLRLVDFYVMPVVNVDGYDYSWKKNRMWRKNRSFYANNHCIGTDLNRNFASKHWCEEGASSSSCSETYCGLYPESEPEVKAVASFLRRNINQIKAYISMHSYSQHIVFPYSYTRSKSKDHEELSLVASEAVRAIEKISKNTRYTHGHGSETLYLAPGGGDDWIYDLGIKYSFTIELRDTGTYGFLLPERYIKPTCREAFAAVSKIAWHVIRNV

[2] = target: T2, human carboxypeptidase B (human, UniProt P15086 111-417)
T2 construct: also called CPB
T2 sequence (looked up): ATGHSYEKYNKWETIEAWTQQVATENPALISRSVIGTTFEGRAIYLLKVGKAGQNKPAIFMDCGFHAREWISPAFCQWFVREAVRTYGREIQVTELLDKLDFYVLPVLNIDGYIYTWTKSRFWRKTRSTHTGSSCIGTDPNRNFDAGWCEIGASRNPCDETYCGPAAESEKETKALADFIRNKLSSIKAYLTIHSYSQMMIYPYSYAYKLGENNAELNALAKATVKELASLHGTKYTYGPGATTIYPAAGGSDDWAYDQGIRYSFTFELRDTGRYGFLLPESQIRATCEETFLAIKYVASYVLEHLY

QQHADPICNKPCKTHDDCSGAWFCQACWNSARTCGPYVG (peptide, UniProt P01075 1-39, looked up, also called PCI) [potato carboxypeptidase inhibitor]: binds [1]; binds [2].
